Measured values: the DeepSol protein solubility set

Test: soluble on expression in E. coli; label from the status in PepcDB or PDB records

| Sequence | soluble on expression in E. coli |
| --- | --- |
| MSGVYDSQADIYLDARPTYPADWYSKLAALSHRHNLAWDAGTGNGQAAIGIAEHYERVVATDVSETMLNLGKPHPKVTYHHTPSSMTEDEMVDLIGGENSVDLITVATAVHWFDLPRFYAIANRLLRKPGGIIAVWSYNTDMVVNPEFDSVMTRFIAETLPYCKFPESQYFLDGYKTLPFPFESVGLGSEGKPMELEMKKTVSFEGFLRMLRSWSAVGAAKEKGVDLLSDNVVKELETAWGGYELVRTIVYKTFMLAGTVP | soluble |
| MNLIFPLFFFALLVGSNAQFQQFCNYCGFIEVPKTWPVAQDSLRSACETLGMATTACKGIINSADLNSSYGKMYPYII | not soluble |
| MAHHHHHHMSWRVSCKTALLDELFTYIAGKTDANTLQKECVLALPQLETLAKMLGFSLDDMSMYRLAWSWSCEAPLCIRKSEFVNGMNAICSGVKLSATATSSTCSASPVKSPKKEFEPILLALRNHVETLDGALRGDVTKFRHFYRFIYKWVQSPLTMERNMGQVGMSIETAVELWRMLFPHYREFKRLDDWITFCMSKKLFPHGIISRDLWEQLLEFTFVTDYSKYDVSDAWPSAMDDFVEYVKSKV | not soluble |
| GMNPENWLLLRRVVRFGDTDAAGVMHFHQLFRWCHESWEESLESYGLNPADIFPGSRKSEVTPEVALPIIHCQADFRRPIHTGDALAMELRPERLNPNSFQVHFEFRCEEQIAAHALIRHLAINAQTRHRCALPEGIDRWLEASGVGKIGSI | soluble |
| MGHHHHHHSHMKMEHQNKRSPLHAAAEAGHVDICHMLVQAGANIDTCSEDQRTPLMEAAENNHLEAVKYLIKAGALVDPKDAEGSTCLHLAAKKGHYEVVQYLLSNGQMDVNCQDDGGWTPMIWATEYKHVDLVKLLLSKGSDINIRDNEENICLHWAAFSGCVDIAEILLAAKCDLHAVNIHGDSPLHIAARENRYDCVVLFLSRDSDVTLKNKEGETPLQCASLNSQV | not soluble |
| MGSDKIHHHHHHMKTIRIGSGAGYAGDRIEPAVELAQKGDIQYLVFECLAERTIAIGQKQKQQNPEKGYNELLADRMHAVLPLCLEKGIKIITDMGSANPVAAGQRVLEIAKELGADKLKIAIVTGDDVHSVLIAQDSKLDEIGLPISRCGKDILSANAYLGADALVEALRQGADVIIAGRVSDPSLFLSAMMYEFDWAADDWDRLGKGTCLGHLLECAGQITGGYYADPGVKDIPNLDRLGFPIAEITEDGSAVITKVEGSGGCVCVDTCKEQLLYEIHRPDSYITPDVIADFSHVTFTQDGENRVRVQGATGREKTGTLKVSVGYQDGFIGEGEISYAGPGAVARGRLALDIVKGRFALCQLDLQEVRYDLIGVDALHGAQRSQSSEPYEVRARVAARCTSRAQAVKVGNEVETLYTNGPAGGGGVNKSVKEILAMDSTLLSRACVTPAVDYLEIK | not soluble |
| EFIHGVYVDTSLHRNFVNLQQASLMAEGGVTGGISLLRNLRTSGNDQGLQQLLADPVQFEDEKGRVSITIEEEDGKLNLNAVTLPNGDEHVFYGPAERRLLTALKLPTALHDSLADWLDANDEPRPDGGESAYYQSLSAPYAPRNAPFATFGELGLVRGVEPAVLERLRPFATVFVDGGAINVNTAPLQVLMALDEGISEGIARDIMQRRRIKPFKSVGELSEIPGMETIAGKLSGFAGARGSTYRLVSRAAVGDVTRLVEAVVNLDGTQPRYLY | not soluble |
| MNKPVSSIPQSKEELELAINSIFDKLMADYRTIPVELTRERNVEGNIKGTQVSVCDTVAYLIGWGKLVLKWHRLKAQGLPVEFPESGFKWNQLGLLAEHFHEQYADWKYEALLKELESTVNELLSLISSLSNYDLYETTWYDKWTLGRMIQFNTSSPMKNMRSKVRRFKKNKGLLLEHHHHHH | soluble |
| MGSDKIHHHHHHMIILVGGEKGGSGKSCLAQNIAVFLTNEVQASVIMVDCDPQRTTSDWIQARNNNPKLPAINCVQLYGKIRNDLLSLEQHYDYVVVDCGGQDNLALRATMSVASYVLMPLRPKRRDLKTVSHMDDIVSTCLMINPKMKASFVITQCPSLPNQASRITEAKDVCRTYDINVLDAVNYCRNIYDDSEESGLSVFELEPQGKAADEMRSIACELLDITDAKQLIEQRNTASNVTPMRGNYGTSRSQEKRFVM | not soluble |
| MEFQKKKQKVIQVKEIKFRPGTDEGDYQVKLRSLIRFLEEGDKAKITLRFRGREMAHQQIGMEVLNRVKDDLQELAVVESFPTKIEGRQMIMVLAPKKKQ | soluble |
| MSLDRNEMLEFAAKLHSHLSPGVALGIKMAQIAYEKLGVNFRGKGLVGIAETAMCLPDALQVVAGTTPGNRNLIVKDYGKLALAIVRFDTREGYRVTIKKEAAKKSELIKKFLYRLGKLNKEEEKRLAEEFLNLEPEYFEVREIRLTIPVGGTKEPIVECEKCGELQPSDYVAEVDGRMVCFMCAGKGYFEEGGSHHHHHH | soluble |
| FNRRFILPELREAVRSVSADIVFLQEVHGEHHSHARRVKDWPTISQYEFLADSMWSDFAYGRNAVYPDGDHGNALLSKYPIIQHENLDVSIDGTEQRGLLHCILQVPDHGQVHAVCVHLGLFESHRRQQLKLLAQLMDRLPEGAPVIVAGDFNDWRQRADALLQGTGLHEVFVQRFGAPAKSFPARWPLLRLDRIYVRNATSHRPKVLSSRPWSHLSDHAPLAVEVTL | not soluble |
| MGSDKIHHHHHHAATLLASCNKDEEETEIQGFKVLEYRPAPGQFINEGFDCQTMEEANAYAEERFNKKLYVSLGSFGGYITVKMPKEIKNRKGYDFGIIGNPFSGSSEPGIVWVSEDANGNGKADDVWYELKGSDEPERDYSVTYHRPDAAGDIPWEDNKGESGIIKYLPQYHDQMYYPNWIKEDSYTLKGSMLEARTEQEGGIWKNKDFGKGYADNWGSDMAKDDNGNYRYNQFDLDDAVDQNGNPVTLERIHFVKVQSAILKNVESIGEVSTEVVGFKAF | not soluble |
| VPQQSATKLVQQWQPLLQRWGELAGVEIKFATARDIPTFEARLMAGEYDIAYMNPYHFTLVNQTPGYTALARAKNKRITGIIVARKGQSVTLDDLQEETIAFPAPRAFAASIITQSELEQKGIKFTPKYVGSHD | not soluble |
| MNIKSLQLFIHLCESKSFAKTAAAMHISPSALSRQIQKLEEETNQQLFVRDNRSVELTTQGKKLMPVALKILSEWQQYQNHIKGTEGELKGEIRLFCSVTASYSHLPELISDFRLQHPFIEFKLSTGDPAQAIDKILADEADIAISAKSEQMPNKIAFET | not soluble |
| SLENKIVKIEPQSIAEEMGIEVGDSLISINGKEVKDIIDYRFLMADEYVVVKIQKTNKEIWELEIEKEYDEKLGVEFESGILDSAKSCRNKCIFCFIDQLPKGMRKTLYFKDDDSRLSFLQGNFVTLTNMSDDDIDRIIKYRISPINISVQTTNPELRKKMLNNKFAGNLMERMKKLSNAGITMNCQVVLCPGINSGEEFSKTVNDLYKLYPSVKNIAGVPVGITSYREGLFNMVPYDSQSALKEIENIKPIQEKFIKEIGSPFVRLSDEFYVLSGIPIPKAEFYGEFEQFEDGIGMIRTFRDNINMSLDNLKDGIHKSFTMVTGVLAYEEIENAAKMLMEKSRGLKINVIKVINEFFGEKITVAGLLTGRDILNYLKRNEVGDYIILPSNMLKSDEDVFLDDVKVLDIEKELNKKVLVCNYSGEDLVDIINKNGREE | soluble |
| MSLSKNKYLFKYLIVDRKKLDPSYTYKYDNIQWNHKIIAIGDIHGDVESLKLILRHSNLIDENDEWIAEDVMLVQVGDILDRGVFGTYIYDYLLKLQKDAIKKNSKVILIMGNHEQLNLCGAFHYVNESEVMLFFQNNRNNRLFSFTNKNGYYFKKLIRLPVIVKINNIIFTHGGISKHMSEYDINTINLKTRLQIENKCKMFQFEKYNYLSKEGVLWNNEISHQVKLQPKKTCKHLRNILKKYNAKGLVVGHTRQKSHEIQTYCNNSFFLIDTGMSLFMNNGQPYPNYLQIEKGKFKTVHLIVQEYNRKEGHHHHHH | not soluble |
| GPGSMLLPRTDSHDPDANDADPRSSSSAPSVSAPALSFTTTADALASTPLSNTNPCAAYTWLPDTRSTAPPDATTRALAYNAYSPPSTAASSATPPPTSSSTAPSTTTVRPPVITVTRATPDTTSTDRTSRRPDSTSTGAYGEDCEPGRYTSGVDLAATSRESVTVSTDPAGNVPVSTSAPFSAST | soluble |
| MYQAVVFFDLDGTLMQDDKTVAASSVRAIQQLRANHVLPVIATGRNVFEVQDVMTTTGIDSIVSANGSYVAYQGQFLSAHELDKELLTDITHFANRQQNALAYYNNAGFALSHRDALTTSNYRALRQTARVAPHFYEHQHINFLLTFDPLNAAQYRQRYRGRLHFVRNNPRALDTMQWGVSKAVGIQDILTKAHLTKVPTYAFGDQLNDIEMFRMIQTPIAMGNGHPQVKQLARYVTADNMHGGIAQGLQHFDLI | not soluble |
| MNNDKLQRMVENLSEEKFGRTFRHCAYFNKRLRTTGGRYLLKSHDIEINPKQYEHYGEDAVVKIILHELCHYHLHIAGKGYQHKDQDFKRLSQQVGAPRFCNSIESYQQRANYEYYCTKCHAKYIRIRKVDTNRMRCGHCNGKLRMKRQLK | not soluble |
| MATLDGINVKDIVKVERTSVHSHITGLGLNDRLEAEYVSGGMVGQVAARQAAGLIVKMIQEGKIAGRALLVTGEPGAGKTAIAIAISKELGEDTPFVSIVASEIYSNEINKTEALTQAFRRALGIQIKEETEVLEGEVISLEVDRSANGMGPKVGKLTMRTTDMETIYDLGSKMVDACLKEKVMPGDVIQVDKASGRVTRLGRSFNRSHDYDAMGPKVKLVQCPDGEIQKRRETVHTVCLHDIDVINSRTQGYVALFSGDTGEIKAEVRDQINKKVLEWREEGKAKFVPGVLFIDEAHMLDIECFSFLNRAIEGELSPLIIMATNRLIEKVRGTDVESAHGIPSDFLDRMLIINAIPYTKEDTAKILSIRCDEEGVKLQPTALDLLVKLQEATSLRYCIHLIAASEVIRIRSKAEIVTTDHIGSAYRLFFDTKRSEKILTEESAGFLQ | not soluble |
| MTKIAFTGGGTVGHVSVNLSLIPTALSQGYEALYIGSKNGIEREMIESQLPEIKYYPISSGKLRRYISLENAKDVFKVLKGILDARKVLKKEKPDLLFSKGGFVSVPVVIAAKSLNIPTIIHESDLTPGLANKIALKFAKKIYTTFEETLNYLPKEKADFIGATIREDLKNGNAHNGYQLTGFNENKKVLLVMGGSLGSKKLNSIIRENLDALLQQYQVIHLTGKGLKDAQVKKSGYIQYEFVKEDLTDLLAITDTVISRAGSNAIYEFLTLRIPMLLVPLGLDQSRGDQIDNANHFADKGYAKAIDEEQLTAQILLQELNEMEQERTRIINNMKSYEQSYTKEALFDKMIKDALN | not soluble |
| SNADPKEGVQYEVLSTSLENDGMAPVTEVFALSCGHCRNMENFLPVISQEAGTDIGKMHITFNQSAHIASMFYYAAEMQVDGAPDHAFMEDLFAATQMGEGTTLTEQQEAYSKAFTSRGLVSPYDFNEEQRDTLIKKVDNAKMLSEKSGISSVPTFVVNGKYNVLIGGHDDPKQIADTIRYLLEK | soluble |
| GSHMLITPRNIFRHELIGLSVRIARSVHRDIQGISGRVVDETRNTLRIEMDDGREITVPKGIAVFHFRTPQGELVEIDGRALVARPEERIKKKFRKP | soluble |
| MSEVIDLASPIEAHGETLSQVTFRRPTAQEARAIKALPYKIDKNEDVSLDLDVAAKYIAVCAGIPPSSVNQMDLCDINTLSWKVASFFMAAASATLKD | soluble |
| VPSPDDTEVTVARLTSMSSAEEPLTAGRDGLLSLLRNGQLPSRGAKAPQRERYQRIVAAAMELASEGGYDAVQMRAIADRAGVALGTVYRYFPSKNHMLVMGLLMVFEGMRSRFEDVAIPGDTPSERILFVLRKNTEVLEKDRPRYEALVRAFMFADASASAELDAFGALMTEMFAKTIGVEQISDDQLNAIRVIGDVWMSSLVSWVAGRISVDEVMAHLGLAVRLVFRRLGG | not soluble |
